Legend:
[1] = biological target: extracellular part of human CD40L (aa 108-261 recombinantly produced in E. coli) (human) (UniProt P29965); assay: BLI (OctetRED96), Fab captured on anti-human Fab-CH1 (FAB2G) sensors, soluble CD40L 2.5-80 nM, 1:1 global fit; purchased
IL-1β = assay: cell-based or functional assay

extracellular part of human CD40L (aa 108-261 recombinantly produced in E. coli) (human), sequence (P29965 108-261 limits assumed): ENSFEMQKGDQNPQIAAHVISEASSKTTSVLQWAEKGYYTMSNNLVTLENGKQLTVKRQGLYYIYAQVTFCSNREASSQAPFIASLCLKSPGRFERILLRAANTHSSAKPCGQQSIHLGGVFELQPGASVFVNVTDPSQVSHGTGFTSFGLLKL

Row | Kd [1] [nM] | NHDF IC50 (pM); inhibition of IL-1β induced IL-6 release from NHDF cells (IL-1β) [pM] | Substance
1 | < 0.3 |  | Dapirolizumab Fab
2 |  | 70 | Met-huIL-1Ra (Anakinra) (from UniProt P18510 26-177) (ligand)
3 |  | 900 | PEG(L30kDa)-Met-huIL-1Ra (from UniProt P18510 26-177) (ligand)

Source: patent US20210284690A1
